Test results from publication PMC7196576, “Structural changes of a bacteriophage upon DNA packaging and maturation” (Protein & Cell, 2020).

B1: portal protein gp8 of bacteriophage T7 (natural protein, Escherichia coli bacteriophage T7, UniProt P03728 1-536, looked up)
chain: MAEKRTGLAEDGAKSVYERLKNDRAPYETRAQNCAQYTIPSLFPKDSDNASTDYQTPWQAVGARGLNNLASKLMLALFPMQTWMRLTISEYEAKQLLSDPDGLAKVDEGLSMVERIIMNYIESNSYRVTLFEALKQLVVAGNVLLYLPEPEGSNYNPMKLYRLSSYVVQRDAFGNVLQMVTRDQIAFGALPEDIRKAVEGQGGEKKADETIDVYTHIYLDEDSGEYLRYEEVEGMEVQGSDGTYPKEACPYIPIRMVRLDGESYGRSYIEEYLGDLRSLENLQEAIVKMSMISSKVIGLVNPAGITQPRRLTKAQTGDFVTGRPEDISFLQLEKQADFTVAKAVSDAIEARLSFAFMLNSAVQRTGERVTAEEIRYVASELEDTLGGVYSILSQELQLPLVRVLLKQLQATQQIPELPKEAVEPTISTGLEAIGRGQDLDKLERCVTAWAALAPMRDDPDINLAMIKLRIANAIGIDTSGILLTEEQKQQKMAQQSMQMGMDNGAAALAQGMAAQATASPEAMAAAADSVGLQPGI
notes: portal protein gp8, Escherichia coli bacteriophage T7; domains clip (294-334), stem (335-356 and 269-293), wing (1-268, 357-427), crown (428-492), C-terminal helical barrel; Native protein in the virion; dodecamer at one vertex; The C-terminal barrel is not seen in capsid II; also called T7 portal; source: in mature T7 phage and T7 capsid II particles purified from cells; copies: 12
B2: tail fiber gp17 of bacteriophage T7 (natural protein, Escherichia coli bacteriophage T7, UniProt P03748 1-553, looked up)
chain: MANVIKTVLTYQLDGSNRDFNIPFEYLARKFVVVTLIGVDRKVLTINTDYRFATRTTISLTKAWGPADGYTTIELRRVTSTTDRLVDFTDGSILRAYDLNVAQIQTMHVAEEARDLTTDTIGVNNDGHLDARGRRIVNLANAVDDRDAVPFGQLKTMNQNSWQARNEALQFRNEAETFRNQAEGFKNESSTNATNTKQWRDETKGFRDEAKRFKNTAGQYATSAGNSASAAHQSEVNAENSATASANSAHLAEQQADRAEREADKLENYNGLAGAIDKVDGTNVYWKGNIHANGRLYMTTNGFDCGQYQQFFGGVTNRYSVMEWGDENGWLMYVQRREWTTAIGGNIQLVVNGQIITQGGAMTGQLKLQNGHVLQLESASDKAHYILSKDGNRNNWYIGRGSDNNNDCTFHSYVHGTTLTLKQDYAVVNKHFHVGQAVVATDGNIQGTKWGGKWLDAYLRDSFVAKSKAWTQVWSGSAGGGVSVTVSQDLRFRNIWIKCANNSWNFFRTGPDGIYFIASDGGWLRFQIHSNGLGFKNIADSRSVPNAIMVENE
notes: tail fiber protein gp17, Escherichia coli bacteriophage T7; only the N-terminus (a jelly-roll barrel and a 22-residue alpha-helix) was resolved; Native protein in the virion; six trimers a phage; The distal parts of the fibers were too flexible to be resolved; source: in mature T7 phage purified from cells
B3: adaptor protein gp11 of bacteriophage T7 (natural protein, Escherichia coli bacteriophage T7, UniProt P03746 1-196, looked up)
chain: MRSYDMNVETAAELSAVNDILASIGEPPVSTLEGDANADAANARRILNKINRQIQSRGWTFNIEEGITLLPDVYSNLIVYSDDYLSLMSTSGQSIYVNRGGYVYDRTSQSDRFDSGITVNIIRLRDYDEMPECFRYWIVTKASRQFNNRFFGAPEVEGVLQEEEDEARRLCMEYEMDYGGYNMLDGDAFTSGLLTR
notes: adaptor protein gp11, Escherichia coli bacteriophage T7; Native protein in the virion; dodecameric ring; also called tail adaptor; source: in mature T7 phage purified from cells; copies: 12
B4: nozzle protein gp12 of bacteriophage T7 (natural protein, Escherichia coli bacteriophage T7, UniProt P03747 1-794, looked up)
chain: MALISQSIKNLKGGISQQPDILRYPDQGSRQVNGWSSETEGLQKRPPLVFLNTLGDNGALGQAPYIHLINRDEHEQYYAVFTGSGIRVFDLSGNEKQVRYPNGSNYIKTANPRNDLRMVTVADYTFIVNRNVVAQKNTKSVNLPNYNPNQDGLINVRGGQYGRELIVHINGKDVAKYKIPDGSQPEHVNNTDAQWLAEELAKQMRTNLSDWTVNVGQGFIHVTAPSGQQIDSFTTKDGYADQLINPVTHYAQSFSKLPPNAPNGYMVKIVGDASKSADQYYVRYDAERKVWTETLGWNTEDQVLWETMPHALVRAADGNFDFKWLEWSPKSCGDVDTNPWPSFVGSSINDVFFFRNRLGFLSGENIILSRTAKYFNFYPASIANLSDDDPIDVAVSTNRIAILKYAVPFSEELLIWSDEAQFVLTASGTLTSKSVELNLTTQFDVQDRARPFGIGRNVYFASPRSSFTSIHRYYAVQDVSSVKNAEDITSHVPNYIPNGVFSICGSGTENFCSVLSHGDPSKIFMYKFLYLNEELRQQSWSHWDFGENVQVLACQSISSDMYVILRNEFNTFLARISFTKNAIDLQGEPYRAFMDMKIRYTIPSGTYNDDTFTTSIHIPTIYGANFGRGKITVLEPDGKITVFEQPTAGWNSDPWLRLSGNLEGRMVYIGFNINFVYEFSKFLIKQTADDGSTSTEDIGRLQLRRAWVNYENSGTFDIYVENQSSNWKYTMAGARLGSNTLRAGRLNLGTGQYRFPVVGNAKFNTVYILSDETTPLNIIGCGWEGNYLRRSSGI
notes: nozzle protein gp12, Escherichia coli bacteriophage T7; Native protein in the virion; hexameric tube; source: in mature T7 phage purified from cells

Molecular target: the molecule itself
Assay: cryo-EM structure; mature T7 phage purified from cells; icosahedral, symmetry-mismatch and local reconstructions (shell 3.5 Å, asymmetric 7 Å, portal-tail complex 3.8 Å, core 6.0 Å)

Row | Protein | stoichiometry N
1 | B1 | 12
2 | B2 | 3
3 | B3 | 12
4 | B4 | 6
